Experimental findings from US20120184019A1 (University of California, published 2012) are described below.

Data set [1] deals with the molecule itself. Kind of data set: self-assembly into filaments, GFP fluorescence microscopy in E. coli.
Data set [2] concerns the molecule itself. The experiment in a line: self-assembly into filaments, GFP fluorescence microscopy, time-lapse and FRAP in B. subtilis.
Data set [3] concerns the molecule itself. The experiment in a line: GFP fluorescence microscopy in B. subtilis (self-assembly into filaments).

Changes are numbered by the printed parent chain. Names and notes keep the numbering of the source.

B1: Alp7A-GFP fusion protein (OrfB of Bacillus subtilis natto plasmid pLS20 with C-terminal GFP) (other)
chain: MNISRMNVDFGNSMYMNLIDGYFFELPTNVVEISKEAAEGKFTSIVEDPADLKDRLLVSTVIDETERYFLVGELAEPEVLGNQHIKKLHNKVESHIPYVTFLAATAYYQALKGKREDNEVTIEYFQTMLPIWLLKKLDKFSEMQKRMASKFLGTHQVKVLTLGLEKELTIKVEDAACRIESEVARWAIKKNFDLEDKDYAEQFKNYDVVFCDLGGGTDDLVLLPAGLKPPKSRDSFVSNTEAPFLAHLEKLRKEKLLEHFDSVRELEKFIYSNIGKTKMERRDGNTGQKFDLTDIIKKSLKEYTEIKIAQAENTFPAPKDKVYKYLYFGGVGEVLEESISVVTEERYGRDISESNHIVAEDARLLNLYGLEVLSRAEQVKKQANEKEAQSI
notes: Observed inside living or fixed E. coli and B. subtilis cells; Not a purified protein; also called pLS20 OrfB; not shown: C-terminal GFP from plasmid pMUTIN-GFP+
Regarding B1, the binding result in data set [1] is reported as “binds”.

B2: Alp7A(E180A)-GFP (other)
chain: B1 chain with E180A
notes: Observed in B. subtilis PY79 cells; also called mini-pLS20alp7A(E180A)-gfp product; not shown: C-terminal GFP from plasmid pMUTIN-GFP+
Turning to B2, in data set [2], the binding result was “binds”.

B3: Alp7A(D212A)-GFP (other)
chain: B1 chain with D212A
notes: Observed in B. subtilis PY79 cells; also called mini-pLS20alp7A(D212A)-gfp product; not shown: C-terminal GFP from plasmid pMUTIN-GFP+
With B3, in data set [3], the binding result was “no binding”.

B4: Alp8A-GFP fusion protein (Orf250 of Proteus vulgaris plasmid Rts1 fused to GFP) (other)
chain: MELLRKGRSFGGLFLIKGKVMNQSERFIVGLDIGYSNVKVACGGTQLLDPKVTIFPAYATPEPESDLALAKKSPDEVKVYPNGTEWRVFTNRVGHRELHESYHSTEMYKALFYGALIKATEGRSDVIDILVTGLPVRIANSEADRSQLCESFTGKHEVTPGRFILVKEVVVLSQGVGIMNDILNTEGLISDEDLEFSNILVIDPGYYSMDYVTFHRGDKKNEFSGSSLNATSVIIEEIVRVLERDYPKEGAQETERIETALRLGNKTFNNGFRSVEIEPLIEEVSHRIVSSVVAELLKRTRSIGPVHIIISAGGGARFYDHFIKEAFPQARILQSVNPVASNSIGYWHYGVNKLSSQSD
notes: Produced in E. coli TOP10 from pEB400; also called Rts1 orf250; pPtrcalp8A-gfp product; not shown: GFP from plasmid pDSW210
Consider B4, for which the binding result in data set [1] is recorded as “binds”.
